# Assay: yeast display, Sf9 membrane polyspecificity reagent, FACS + sequencing; frameworks hold sequencing errors
# Summary of the method: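 Genes from sorted yeast were amplified by colony PCR, read by MiSeq 2 × 250 sequencing and filtered on CDR length. These cells carried a synthetic nanobody library in Saccharomyces cerevisiae BJ5465 and were sorted by FACS into low and high (top ~1%) gates on anti-HA and streptavidin fluorescence. Polyreactivity is labelled according to the gate of origin.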
row,Sequence,polyreactivity (PSR sort gate)
1,QVQLVESGGGLVQAGGSLRLSCDASVSIFQPYAMGWYRQAPGKERELVAAISSSGGSTTYADSVKGRFTISRDNAKNTVYLQMKSLKPEDTAVYYCAADSADDMGYWGQGTQVTVSS,low polyreactivity
2,QVQLVESGGGLVQAGGSLRLSCDCSGRIFKRYDMGWYRQAPGKERELVAAITGTGGSTYYADSVKGRFTISRDNAKNTVYLQMNSLKPEDTAVYYCAARLYNTYSGFAFGYWGQGTQVTVSS,high polyreactivity
3,QVQLVESGGGLVQAGGSLRLSCDDSGGIFGFYSMGWYRQAPGKERELVAAISGDGGSTYYADSVKGRFTISRDNATNTVYLQMNSLKPEDTAVYYCTAAFFTEYYQGDYWGQGTQVTVSS,low polyreactivity
4,QVQLVESGGGLVQAGGSLRLSCDDSGSTFVINDMGWYRQAPGKERELVAAITWGSGSTSYADSVKGRCTISRDNAKNTVYGQMISLKPEDTEVYYCAADVYLGLFGYYAEYNDYWGQGTQVTVSS,low polyreactivity
5,QVQLVESGGGLVQAGGSLRLSCGASGFTFQNYAMGWYRQARGKERELVAAIDSRGGRTYYADSVKGRFTISRDNAKNTVYLQMNSLKPEDTSVYYCAVAENKRCGAVGYYYWGQGTQVTVSS,low polyreactivity
6,QVQLVESGGGLVQAGGSLRLSCGASGGIFIFYAMGWYRHAPGKERELVAAISNVSSTNYADSVKGRFTISRDNAKHTVYLEMNSLKPEDTAVYYCNAVGVPSEYYSWGQGTQVTVSS,low polyreactivity
7,QVQLVESGGGLVQAGGSLRLSCGASGGTFVSNAMGWYRQAPGKERELVAAITSGCNTTYADSVKGRFTISRDNAKNTVYLQMNSLKPEDTAVYYCATDFEGSWIDARGTWYYVWFGYWGQGTQVTVSS,low polyreactivity
8,QVQLVESGGGLVQAGGSLRLSCGASGRIFATNAMGWYRQAPGKERELVATITRSAGRTYYADSVKGRFTISRDNAKNTVYLQMNSLIPEDTAVYYCAASYLDSEPGYREYDYWGQGTQVTVSS,low polyreactivity
9,QVQLVESGGGLVQAGGSLRLSCGASGRIFGYNAMGWYRQARGKERELVAAITTSGGSTYYADSVKGRFTLSRDNEKNTVYFQMNSLKQEDTAVYYCARDSLQVFYPYASDDYWGLGTQVTVSS,low polyreactivity
10,QVQLVESGGGLVQAGGSLRLSCGASGRTFGHYDLGLYRQEPGTEREFVANIRQSTGSTDYADSVKGRFTISRDNAKITVYLQMNSLKPEDTEVYYCASPWYYYVEHRQGSYILDYWGQGTQVTVSS,low polyreactivity
11,QVQLVESGGGLVQAGGSLRLSCGASGRTFRKYAMGWYRQAPGKERELVASITYSGGSTYYADSVKGRFTISRDNAKNTVYLQMNSLKPEDTAVYYCAARLHWNRYPQTLYDYWGLGTQVTVSS,high polyreactivity
12,QVQLVESGGGLVQAGGSLRLSCGASGRTFRRYAIGWYRQAPGKERELVATITSNGGSTYYADSVKGRFTISRDNAKNTVDLQLNSLTPEDTAVYYCARDLTYYRSRYDYWGQGTQVTVSS,high polyreactivity
13,QVQLVESGGGLVQAGGSLRLSCGASGRTFYSYAMGWYRQEHGKERELVATITNGDTTNYADSVKGRFTISRDNAKNTVYLQMNSLKQEDTAVYYCAKDISPGYDEYDYWGQGTQVTVSS,low polyreactivity
14,QVQLVESGGGLVQAGGSLRLSCGASGSIFRYYTMGWYRQAPGKERELVAAISRSGGSTYYADSVKGRFTISRDNAKNTVYLQMNRLKPEDTAVYYCAARSGYIYEYWGQGTQVTVSS,high polyreactivity
15,QVQLVESGGGLVQAGGSLRLSCGASGSTFIYYVMGWYRQAPGKEREWVASISTGGRTYYADSVKGRFTSSRDNANHPVYVQMHSLKPEETAVDSCAGAIRSFRRPALYYWGQGTQVTVSS,high polyreactivity
16,QVQLVESGGGLVQAGGSLRLSCGASGSTFWYYAMGWYRPAPGKERELVAAISSRGGSTYYADSVKGRFTISRDKAKNTVYFQLNSLKPEDTAVYYCAILGSYGGGQRRKYDSWGQGTQVTVSS,high polyreactivity
17,QVQLVESGGGLVQAGGSLRLSCPACGRTFNRYAMGWYRQAPGKERELVATISNSGRTYYADSVKGRFTISRDNAKNTVYLQMNSLKPEDTAVYYCAAQLPSYYKYPRHDYWGKGTQVTVSS,high polyreactivity
18,QVQLVESGGGLVQAGGSLRLSCPASGFIFRYYAMGWYRQAPGKERELVAAISWSGGSTNYADSVKGRFTISRDNAQNTVYLQINSLKPEDTALSYCADDGTVRSWGRYYHWGQGTQVTVSS,low polyreactivity
19,QVQLVESGGGLVQAGGSLRLSCPASGFTLHSYAMGWYRQAPGKERELVAAITRSGGGTYYADSVKGRFTISRDNAKNTVYLQMNSLKPEDTAVYYCAARFGGQYQHDYWGQGTQVTVSS,high polyreactivity
20,QVQLVESGGGLVQAGGSLRLSCPASGGNFPFNGMGWSRQAPGKERELVAAISSGGRTYYADSVKGRFTISRDNAKNTVYLQMNSLKPEDTAVYYCAARTSRYYYYPYAFYWGQGTQVTVSS,high polyreactivity
21,QVQLVESGGGLVQAGGSLRLSCPASGLIFNSYAMGWYRQARGTERELVAAISRHGGITYYADSVKGRFTISRDHAKNTVYLQMNSLKPEDTAVYYCNADSSRRRYSSDYWGQGTQVTVSS,high polyreactivity

row,Sequence,polyreactivity (PSR sort gate)
1,QVQLVESGGGLVQAGGSLRLSCPASGRIFHRNTMGWYRPAPGKERELVAAIRSGSRTYYADSVKGRFTISRDNAKNTVYLQMNSLKPEDKAVYYCATTYGSPRYDYWGQGTQVTVSS,high polyreactivity
2,QVQLVESGGGLVQAGGSLRLSCPASGRIFQLYAMGWYRQAPGKERELVAAIRYSGDSTYYADSVKGRLTISRDNAKNTVYLQLNSLKPEDTAVYYCAARSRYGYRNKYEYWGQGTQVTVSS,high polyreactivity
3,QVQLVESGGGLVQAGGSLRLSCPASGRTFGDYAMGWYRQAPGKERELVAAISSSGGRTYYADSVKGRFTISRDNAKNTVYLQMNSLKPEDTAVYYCAAQSKYYQYYSWGQGTQVTVSS,high polyreactivity
4,QVQLVESGGGLVQAGGSLRLSCPASGRTFGIYAMGWYRQAHGKERELVAAITWSGDSTYYADSVKGRFTISRDNAKNTVYLQMNSLKPEDTAVYYCAADYVGVTSVRYDYWGQGTQVTVSS,low polyreactivity
5,QVQLVESGGGLVQAGGSLRLSCPASGRTFQVYAMGWYRQAPGKERELVAGITRAGSTYYADSVKGRFTISRDNAKNTVYLQMISLKPEDTAVYYCAAGWKSSYYIWRYGSWGQGTQVTVSS,high polyreactivity
6,QVQLVESGGGLVQAGGSLRLSCPASGRTFVVYAMGWYRQAPGKEREFVAAITTRGNSTYYADSVKGRFTISRDNAKNTVYLQMNSLKPEDTAVYYCAAVLRLSTLTTDFGYWGQGTQVTVSS,high polyreactivity
7,QVQLVESGGGLVQAGGSLRLSCPASGRTFYGYPMGWYRQAPGKERELVAAISRRGGSTNYADSVKGRFTISRDHAKNTVYLQMNSRKPEDTAVYSCNANYYRTHYDYWGQGTQVTVSS,high polyreactivity
8,QVQLVESGGGLVQAGGSLRLSCPASGSIFSAYAMGWYRQAPGNEREFVAAITRRGGNTYYADSVKGRFTISRDNAKNTVYLQMNSLKPEDTAVYYCAAIRRQKGLWDYYYWGQGTQVTVSS,low polyreactivity
9,QVQLVESGGGLVQAGGSLRLSCPASGSIFWPNAMGWYRQAPGKERELVASINSGSGSTYYADSVKGRFTISRDNAKNTVYLQMNSLKPEDTAVYYCNAAGAYPYYSEDYYWGQGTQVTVSS,low polyreactivity
10,QVQLVESGGGLVQAGGSLRLSCPASGSIFYYYAMGWYRQEPGKERELVATITWNGAGTFYADSVKGRFTISRDNAKNTVYLQMNSLKPEDTAVYYCAASWYGESGYDYWGQGSQVTVSS,low polyreactivity
11,QVQLVESGGGLVQAGGSLRLSCPASGSTFGPYAMGWYRQAPGKERELVAAISSTGGSTYYADSVKGRFTISRDNAKNTVYLQMNSLKPEDTAVYYCAAYSTYARGYWGQGTQVTVSS,high polyreactivity
12,QVQLVESGGGLVQAGGSLRLSCPASGSTFSYNMGWYRPAPGKERELVAAISGSGGSTYADSVKGRFTISRDNAKKTVYLQMNSLKPEDTAVYYCATVRYWVHEYGFWGLGTQVTVSS,high polyreactivity
13,QVQLVESGGGLVQAGGSLRLSCPASGSTFTLYVMGWYRPAPGKERELVAAISSNGGRTYYADSVKGRFTISRDNAKNTVYLQMNSLKPEDTAVYDCAAGKIGRYHYDYWGQGTQVTVSS,high polyreactivity
14,QVQLVESGGGLVQAGGSLRLSCPASGSTFWYYAMGWYRQAPGKERELVAAITRGGSTNYADSVKGRFTISRDNAKNTVYLQMNSLKPEDTAVYYCAKDGPQYRYYYWGQGTQVTVSS,high polyreactivity
15,QVQLVESGGGLVQAGGSLRLSCPASGSTIDPNARGWYRQAPGNERELVAAISYTGGRTYYADSVKGRFTISRDNAKNTVYLQMNSLKPEDTAVYYCAVLVVGATTQDEPYFSGVEHDYWGQGTQVTVSS,low polyreactivity
16,QVQLVESGGGLVQAGGSLRLSCPASGYIFYRNAMVWYRQAPGKERELVAAITYTGGRTYYADSVKGRFTISRDNAKNTVYLQMNSLNPEDTAVYYCNADGRVFVVRPYYDYEYWGQGTQVTVSS,low polyreactivity
17,QVQLVESGGGLVQAGGSLRLSCSASGFIFRYNAMGWYRQAPGKEREFVAAISQGGASTYYADSVKGRFTISRDNAKNTVYLQMNSLKPEDTAVYYCNAVVDTSKYTDYYWGQGTQVTVSS,low polyreactivity
18,QVQLVESGGGLVQAGGSLRLSCSASGFIFWYNAMGWYRQAPGKERELVAAISWSGGRTYYADSVKGRFTISRDNAKNTVYLQMNSLKPEDSAVYYCAAKVPRSSRSYGYWGQGTQVTVSS,high polyreactivity
19,QVQLVESGGGLVQAGGSLRLSCSASGFIFWYYAMGWYRQAPGKERELVAAISSGGSTNYADSVKGRFAISRDNAKNTVYLQLNSLIPVDTAVYYCATSSIWGSARVRWVTYYYWGQGTQVTVSS,low polyreactivity
20,QVQLVESGGGLVQAGGSLRLSCSASGFIFYSYAMGWSRPAPGKEREFVAAISRSGGITYYADSVKGRFTISRDNAKNTVYLQMNSLKPEDTAVYYCAKVGRAVSSIKDMDSWGQGTQVTVSS,high polyreactivity

# Reference: the nanobody polyreactivity screen of Harvey et al. (2022)
